Experimental data: US20160053277A1, “Compositions Having Dicamba Decarboxylase Activity and Methods of Use” (PIONEER HI-BRED INTERNATIONAL, INC., priority 2013, published 2016)
Numbering of substitutions follows the chain as printed.

B1: 4 (protein, listed as Lactobacillus buchneri)
chain: MAKVITLEEHFSSQKLGQKMAEVLPKRPIGNVSPKMQDYMQRSLPPEAELEDVTGSRIQWMDQHQISMQILSYGNQNPQNSDPKFAVELTKLANDELAKAVAKAPDRFRAFASLPVSHPTDAAAELKRGVEELGFKGAMLVRPTSQAHPFFDDPFYLPIFEAAANLNVPVYLHPSFPDSQIIDYYYSNGPWDDKVSGILGTAGYGWHTDVGIQTVRLLLSGVFEKYPNLKLISGHWGEFASFALERMDQVMYPETNLSEPISKIYRDHVYVTPSGILTEPQLKFVKDEVGIEHLLYSIDYPYIKPENSGSFIESSPLTDEEKELFAHGNAEKLLQL
B2: 92 (protein, listed as Chitinophaga pinensis)
chain: MARIVTLEEHVSFPEMTALLPEEILKNRKQSGAALQMQEKLADITGERLTSMKAAGISMQVLSVENTDVYLLPDSLAPAFAAKYNDLLADKISSHSDAFAAFAMLPMTVPEAAADELERAVKTHGFCGAMIKGLINGVFLDAPKFAPVFACAEKLGVPLYIHPGIPPKEVIDAYYSNVGDTKGPNEAIACYGWGWHSETAIHILRLLAAGIFDKYPQLNIIIGHMGEMLPMMWERSNRVFQPGNNGKNQRTLIETFRKQLYITTSGIFTQPPLQIAIDTIGIDNILFSIDYPFSSNQMGIDFLTKAALPAEQLAKMAHGNADRILKF
B3: 5 (protein, listed as Staphylococcus aureus)
chain: MAQNNMEANQMKSITFEEHYVIEDIQKETMNAISADPKGVPMKVMLEGLEKKTGFTNADELSHHDERIQFMNNQDVQIQVLSYGNGSPSNLVGQKAIELCQKANDQLANYIAQYPNRFVGFATLPINEPEAAAREFERCINDLGFKGALIMGRAQDGFLDQDKYDIIFKTAENLGVPIYLHPAPVNSDIYQSYYKGNYPEVTAATFACFGYGWHIDVGIHAIHLVLSGIFDRYPKLNMIIGHWGEFIPFFLERMDEALFAEHLNHPVSYYFKNNFYITPSGMLTKPQFDLVKKEAGIDRILYAADYPYIEPEKLGVFLDELGLTDEEKEKISYTNGAKLLGLSSNN
B4: 16 (protein, listed as Staphylococcus aureus)
chain: B3 chain with A131T
B5: 108 (protein, listed as Staphylococcus aureus)
chain: MAKSITFEEHYVIEDIQKETMNAISADPKGVPMKVMLEGLEKKTGFTNADELSHHDERIQFMNNQDVQIQVLSYGNGSPSNLVGQKAIELCQKANDQLANYIAQYPNRFVGFATLPINEPEAAAREFERCINDLGFKGALIMGRAQDGFLDQDKYDIIFKTAENLDVPIYLHPAPVNSDIYQSYYKGNYPEVTAATFACFGYGWHIDVGIHAIHLVLSGIFDRYPKLNMIIGHWGEFIPFFLERMDEALFAEHLNHSVSYYFKNSFYITPSGMLTKPQFDLVKKEVGIDRILYAADYPYIEPEKLGVFLDELGLTDEEKEKISYTNGAKLLGLSSNN
B6: 22 (protein, listed as Staphylococcus epidermidis)
chain: MAKSINFEEHYVVDDIQKETMKYMSSDPNGVPMQTMLKGLEQKSGFTNADDITKHDERIKFMDEHDVEMQVLSYGNGAPSNLEGERAIELCQQANDTLAKYVNEHPDRFVGFATLPINEPQAAVEEFKRCIKELGFKGALIMGHPKNGFLDQDQYDDLFATAEALNVPIYLHPSPVQSDVYQAYYKGNYSDVTAATFACFGYGWHVDVGIHAIHLVLSGVFDRHPNLNMIIGHWGEFVPFFLERMDDILFADHLEHPISYYFKNNFYITPSGMLTKPQFDLVKAEVGVDRILYSADYPYVEPDKLGTFLDELDLTEEEKEKISYKNGAKLLGLEK
B7: 19 (protein, listed as Talaromyces marneffei)
chain: MATPIITLEEHYISSAIRDASETDHYAVFPSQIISKLNTLSTERLQDLDNGHVSLQVISHGPGAQPPYLCQAANDELASAISANPTRFAGFALLPIAEPQLAVQELERCITQHKFVGALIDNHTNGQFYDDQKFWPVFEKAQELDAPIYVHPSYPDEESGVAAHYRGNYDDRIAAALGAYGWGWHSDTALSILRLFAAGLFDTYPNIKIIIGHMGEMLPFQLERVIGIASRFGRSRGLREVWTQNIWVTTSGMFALAPLACLLQTMPIERVLYSVDYPFSANEKGFAFLEEIKKSGLIKEGEDWERFLYKNAQELLKVNV
B8: 89 (protein, listed as Erwinia billingiae)
chain: MATNRRDFLKNATAVMAGSTVFAGSSHFASAAAVEPAAVQPPRRIIALEEHFMLPEFVGYLHETQQNLRNGLVDKVVTPLSDFGKGRLEIMDKNGVDFAVLSLSGPGVQAEPDRVKAVRLARYANDKLATEMQKNPRRYGGFAHLAMQDPLAAANELERCVKQLHMQGGMINGETDGLYLDDRRYDVFWERVEALNVPIYIHPGNPPDYPHMFAGHPEMWGPVWSWAVETCSHALRLIFSGTFDRYPGARVILGHMGETLPIQLWRLDSRYQIANQTFAIKHPPSWYAKKNITITTSGVCNDAALRCALDSMGSENVMFSIDYPFESTEIAVNWLKTANITEQERNAVAWGNATSILRLGA
B9: 21 (protein, listed as Agrobacterium tumefaciens)
chain: MAQGKVALEEHFAIPETLQDSAGFVPGDYWKELQHRLLDIQDTRLKLMDAHGIETMILSLNAPAVQAIPDRKKAIEIARRANDVLAEECARRPDRFLAFAALPLQDPDAATQELQRCVNDLGFVGALVNGFSQEGDGQTPLYYDLPQYRPFWGEVEKLDVPFYLHPRNPLPQDSRIYDGHPWLLGPTWAFAQETAVHALRLMASGLFDAHPRLNIILGHMGEGLPYMMWRIDHRNAWVKLPPRYPAKRRFVDYFNENFHITTSGNFRTQTLIDAILEIGADRILFSTDWPFENIDHASDWFNATTIAEADRVKIGRTNARRLFKLDGR
B10: 26 (protein, listed as Variovorax paradoxus)
chain: MATHMAPMKNKIALEEHFAIDLTIADSQVYARPEVWQGLKSNLLDFEQQRLEKMDEWGTEFSILSLNSPAVQGIPDAKRAIEVAQRANDVLAEQVKRHPTRFGGFAALPMQDPEASARELERCVNQLGFHGFLVNGFSQVGDENIVVYYDDARFNDFWTAAAALKKPFYMHPRDPLLAREPIYDGAHWLTGPTWAFAMETAIHALRLMSSGMFDRHPALQMILGHFGEGIPFNIWRVDHILRKGRRGMPCDKEIGEYLRSNVHITTSGNFRTPTLLSTMLEVGSDRIMYSVDYPFEKHEDAARWFDTCEISENDRQKIGRDNARKLFGLK

assay: 14C assay with IPTG-induced recombinant E. coli cells: 14CO2 captured from [14C]-carboxyl-labeled dicamba; conditions: among the 108 sequences tested, recombinant E. coli cells

| Molecule | decarboxylation activity of dicamba |
| --- | --- |
| B1 | showed decarboxylation activity of dicamba |
| B2 | showed decarboxylation activity of dicamba |
| B3 | showed decarboxylation activity of dicamba |
| B4 | showed decarboxylation activity of dicamba |
| B5 | showed decarboxylation activity of dicamba |
| B6 | showed decarboxylation activity of dicamba |
| B7 | showed decarboxylation activity of dicamba |
| B8 | showed decarboxylation activity of dicamba |
| B9 | showed decarboxylation activity of dicamba |
| B10 | showed decarboxylation activity of dicamba |

same assay, conditions: dicamba decarboxylation activity of the protein of the given SEQ ID NO; High / Low / No

| Molecule | Enzymatic Detection level |
| --- | --- |
| B1 | High |
| B2 | High |
| B3 | High |
| B4 | High |
| B5 | High |
| B6 | High |
| B7 | High |
| B8 | High |
| B9 | High |
| B10 | High |

same assay, conditions: induced recombinant E. coli cells, [14C]-carboxyl-labeled dicamba, 14CO2 capture

| Molecule | Dicamba Decarboxylase Activity |
| --- | --- |
| B1 | High |
| B2 | Yes |
| B3 | High |
| B4 | High |
| B5 | High |
| B6 | High |
| B7 | High |
| B8 | High |
| B9 | High |
| B10 | High |

assay: Saturation mutagenesis of SEQ ID NO:109: dicamba decarboxylation activity of point mutants (carbon dioxide released); conditions: decarboxylation activity (carbon dioxide released) of point mutant compared with unmutated backbone protein; backbone SEQ ID NO: 109

| Molecule | Fold Activity |
| --- | --- |
| B1 | 1 |
| B2 | 1.7 |
| B3 | 0.8 |
| B4 | 1.1 |
| B5 | 1.6 |
| B6 | 1.6 |
| B7 | 1.6 |
| B8 | 3.1 |
| B9 | 1.9 |
| B10 | 1.2 |
